Assay results from patent publication US20240109955A1.
Read-outs that look alike come from different tables or passages of the source.

Columns and labels:
Assay in all cases: cell-based or functional assay
[1] = molecular target: SARS-CoV-2 spike protein, Omicron variant BA.4/5 (SARS-CoV-2)
[2] = molecular target: SARS-CoV-2 spike protein, Omicron variant BQ.1.1 (SARS-CoV-2)
[3] = molecular target: SARS-CoV-2 Omicron variant BQ.1.1 spike protein (SARS-CoV-2)
[4] = molecular target: SARS-CoV-2 spike protein, Omicron variant BA.2.75.2 (SARS-CoV-2)
[5] = molecular target: SARS-CoV-2 Omicron variant BA.4/5 spike protein (SARS-CoV-2)
[6] = molecular target: SARS-CoV-2 Omicron variant BA.2.75.2 spike protein (SARS-CoV-2)
[7] = molecular target: SARS-CoV-2 spike protein, Alpha variant (B.1.1.7) (SARS-CoV-2)
[8] = molecular target: SARS-CoV-2 spike protein, Beta variant 1 (B.1.351.v1) (SARS-CoV-2)
[9] = molecular target: SARS-CoV-2 spike (S) protein, C.1.2 variant (SARS-CoV-2) (UniProt P0DTC2)
[10] = molecular target: SARS-CoV-2 spike protein, Omicron variant BA1.1.529 (SARS-CoV-2) (UniProt P0DTC2)
[11] = molecular target: SARS-CoV-2 Omicron BA.4.6 spike protein (R346T, F486V) (SARS-CoV-2) (UniProt P0DTC2)
[12] = molecular target: SARS-CoV-2 spike (S) protein, Mu variant (B.1.621) (SARS-CoV-2) (UniProt P0DTC2)
[13] = molecular target: SARS-CoV-2 spike protein, Omicron variant BA.2 (SARS-CoV-2) (UniProt P0DTC2)
[14] = molecular target: SARS-CoV-2 spike protein, Omicron variant BA.2.12.1 (SARS-CoV-2) (UniProt P0DTC2)
[15] = molecular target: SARS-CoV-2 spike protein, Delta variant (B.1.617.2) (SARS-CoV-2)
[16] = molecular target: SARS-CoV-2 spike protein, Omicron variant BA.1 (SARS-CoV-2) (UniProt P0DTC2)
[17] = molecular target: SARS-CoV-2 spike (S) protein, Lambda variant (C.37) (SARS-CoV-2) (UniProt P0DTC2)
[18] = molecular target: SARS-CoV-2 spike (S) protein, Iota variant (B.1.526) (SARS-CoV-2) (UniProt P0DTC2)
[19] = molecular target: SARS-CoV-2 spike protein, Gamma variant (P.1) (SARS-CoV-2)
[20] = molecular target: SARS-CoV-2 spike (S) protein, Omicron variant BA.2.12.1 (SARS-CoV-2) (UniProt P0DTC2)
[21] = molecular target: SARS-CoV-2 spike (S) protein, Omicron variant BA.4/5 (SARS-CoV-2) (UniProt P0DTC2)
[22] = molecular target: SARS-CoV-2 spike (S) protein, Omicron variant BA1.1.529 (SARS-CoV-2) (UniProt P0DTC2)
[23] = molecular target: SARS-CoV-2 spike (S) protein, Omicron variant BA.1 (SARS-CoV-2) (UniProt P0DTC2)
[24] = molecular target: SARS-CoV-2 spike (S) protein, Omicron variant BA.2 (SARS-CoV-2) (UniProt P0DTC2)
[25] = molecular target: SARS-CoV-2 spike protein, Omicron sublineage BA.1.1 (R346K) (SARS-CoV-2) (UniProt P0DTC2)
[26] = molecular target: SARS-CoV-2 spike protein, Omicron variant (B.1.1.529) (SARS-CoV-2) (UniProt P0DTC2)
[27] = molecular target: SARS-CoV-2 spike (S) protein, Alpha variant (B.1.1.7) (SARS-CoV-2) (UniProt P0DTC2)
[28] = molecular target: SARS-CoV-2 spike (S) protein, Omicron sublineage BA.4.7 (R346S, F486V) (SARS-CoV-2) (UniProt P0DTC2)
[29] = molecular target: SARS-CoV-2 spike (S) protein, Omicron sublineage BQ 1.1 (R346T, K444T, F486V) (SARS-CoV-2) (UniProt P0DTC2)
[30] = molecular target: SARS-CoV-2 spike (S) protein, Omicron sublineage BF.7 (R346T, F486V) (SARS-CoV-2) (UniProt P0DTC2)
[31] = molecular target: SARS-CoV-2 spike (S) protein, Omicron sublineage BA.4.6 (R346T, F486V) (SARS-CoV-2) (UniProt P0DTC2)
[32] = molecular target: SARS-CoV-2 Omicron variant XBB spike protein (SARS-CoV-2)
[33] = molecular target: SARS-CoV-2 spike (S) protein, Omicron sublineage BA.1.1 (R346K) (SARS-CoV-2) (UniProt P0DTC2)
[34] = molecular target: SARS-CoV-2 spike protein, Omicron sublineage BQ.1.1 (R346T, K444T, F486V) (SARS-CoV-2) (UniProt P0DTC2)
[35] = molecular target: SARS-CoV-2 spike protein, Omicron sublineage BA.1.1 (R346K) (SARS-CoV-2) (UniProt P0DTC2); remark: listed apart in the source
[36] = molecular target: SARS-CoV-2 spike protein, Omicron sublineage BA.4.6 (R346T, F486V) (SARS-CoV-2) (UniProt P0DTC2)
[37] = molecular target: SARS-CoV-2 spike protein, Omicron sublineage BA.4.7 (R346S, F486V) (SARS-CoV-2) (UniProt P0DTC2)
[38] = molecular target: SARS-CoV-2 spike protein, Omicron sublineage BF.7 (R346T, F486V) (SARS-CoV-2) (UniProt P0DTC2)

A19-46 (antibody), sequence (VH): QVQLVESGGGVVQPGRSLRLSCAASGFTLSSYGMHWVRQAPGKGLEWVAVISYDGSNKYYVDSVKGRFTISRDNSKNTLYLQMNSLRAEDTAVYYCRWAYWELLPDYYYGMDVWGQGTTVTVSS
A19-46 (antibody), sequence (VL): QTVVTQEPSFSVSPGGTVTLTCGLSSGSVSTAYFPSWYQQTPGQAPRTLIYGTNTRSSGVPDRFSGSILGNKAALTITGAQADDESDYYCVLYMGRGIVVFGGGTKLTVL
A19-46.1 (antibody), sequence (VH): as the sequence (VH) above
A19-46.1 (antibody), sequence (VL): as the sequence (VL) above

Work on A19-46 (antibody) yielded an IC50, pseudovirus neutralization [1] of over 10 µg/mL, an IC80, pseudovirus neutralization [1] of over 10 µg/mL and an IC50, pseudovirus neutralization [2] of 0.386 µg/mL. For the same substance, the IC80, pseudovirus neutralization [2] was 1.11 µg/mL, the IC50, pseudovirus neutralization [3] was 0.386 µg/mL and the IC80, pseudovirus neutralization [3] was 1.11 µg/mL. For the same substance, the IC50, pseudovirus neutralization [4] was over 10 µg/mL, the IC80, pseudovirus neutralization [4] was over 10 µg/mL and the IC50, pseudovirus neutralization [5] was over 10 µg/mL. For the same substance, the IC80, pseudovirus neutralization [5] was over 10 µg/mL, the IC50, pseudovirus neutralization [6] was over 10 µg/mL and the IC80, pseudovirus neutralization [6] was over 10 µg/mL.

A19-46.1 (antibody) gave an IC50, pseudovirus neutralization [7] of 0.19 nM, an IC80, pseudovirus neutralization [7] of 0.486 nM and an IC50, pseudovirus neutralization [8] of 0.807 nM. For the same substance, the IC80, pseudovirus neutralization [8] was 2.07 nM, the pseudovirus neutralization IC50 (nM (inferred)) [9] was 11.6 and the pseudovirus neutralization IC80 (nM (inferred)) [9] was 21. For the same substance, the IC50, pseudovirus neutralization [10] was 1.84 nM, the IC80, pseudovirus neutralization [10] was 2.84 nM and the IC50, pseudovirus neutralization [11] was over 10000 nM. It also gave an IC80, pseudovirus neutralization [11] of over 10000 nM, a pseudovirus neutralization IC50 (nM (inferred)) [12] of 1.34 and a pseudovirus neutralization IC80 (nM (inferred)) [12] of 3.81. The IC50, pseudovirus neutralization [13] was 0.69 nM, the IC80, pseudovirus neutralization [13] was 2.23 nM and the IC50, pseudovirus neutralization [14] was over 66.7 nM. The IC80, pseudovirus neutralization [14] was over 66.7 nM, the IC50, pseudovirus neutralization [15] was over 66.7 nM and the IC80, pseudovirus neutralization [15] was over 66.7 nM. It also gave an IC50, pseudovirus neutralization [16] of 0.958 nM, an IC80, pseudovirus neutralization [16] of 2.28 nM and a pseudovirus neutralization IC50 (nM (inferred)) [17] of over 66.7. The pseudovirus neutralization IC80 (nM (inferred)) [17] was over 66.7, the pseudovirus neutralization IC50 (nM (inferred)) [18] was 0.803 and the pseudovirus neutralization IC80 (nM (inferred)) [18] was 1.88. The IC50, pseudovirus neutralization [19] was 0.26 nM and the IC80, pseudovirus neutralization [19] was 0.7 nM.

Work on A19-61.1 (antibody) yielded an IC50, pseudovirus neutralization [7] of 0.175 nM, an IC80, pseudovirus neutralization [7] of 0.325 nM and an IC50, pseudovirus neutralization [8] of 0.0686 nM. For the same substance, the IC80, pseudovirus neutralization [8] was 0.113 nM, the pseudovirus neutralization IC50 (nM (inferred)) [20] was 0.11 and the pseudovirus neutralization IC80 (nM (inferred)) [20] was 0.298. It also gave a pseudovirus neutralization IC50 (nM (inferred)) [21] of 0.128, a pseudovirus neutralization IC80 (nM (inferred)) [21] of 0.322 and a pseudovirus neutralization IC50 (nM (inferred)) [9] of 8.43. The pseudovirus neutralization IC50 (nM (inferred)) [22] was over 66.7, the pseudovirus neutralization IC80 (nM (inferred)) [22] was over 66.7 and the IC50, pseudovirus neutralization [11] was 540 nM. The IC80, pseudovirus neutralization [11] was 2170 nM, the pseudovirus neutralization IC50 (nM (inferred)) [12] was 0.264 and the pseudovirus neutralization IC80 (nM (inferred)) [12] was 0.43. The pseudovirus neutralization IC50 (nM (inferred)) [23] was over 66.7, the pseudovirus neutralization IC80 (nM (inferred)) [23] was over 66.7 and the pseudovirus neutralization IC50 (nM (inferred)) [24] was 0.0607. It also gave a pseudovirus neutralization IC80 (nM (inferred)) [24] of 0.17, an IC50, pseudovirus neutralization [15] of 0.209 nM and an IC80, pseudovirus neutralization [15] of 0.292 nM. For the same substance, the pseudovirus neutralization IC50 (nM (inferred)) [17] was 0.11, the pseudovirus neutralization IC80 (nM (inferred)) [17] was 0.186 and the pseudovirus neutralization IC50 (nM (inferred)) [18] was 0.0418. It also gave a pseudovirus neutralization IC80 (nM (inferred)) [18] of 0.0836, an IC50, pseudovirus neutralization [19] of 0.135 nM and an IC80, pseudovirus neutralization [19] of 0.288 nM.

Substance B1-182.1 (antibody) has an IC50, pseudovirus neutralization [7] of 0.0262 nM, an IC80, pseudovirus neutralization [7] of 0.0844 nM and an IC50, pseudovirus neutralization [8] of 0.0357 nM. It also gave an IC80, pseudovirus neutralization [8] of 0.139 nM, a pseudovirus neutralization IC50 (nM (inferred)) [20] of 0.739 and a pseudovirus neutralization IC80 (nM (inferred)) [20] of 5.92. It also gave a pseudovirus neutralization IC50 (nM (inferred)) [21] of over 66.7, a pseudovirus neutralization IC80 (nM (inferred)) [21] of over 66.7 and a pseudovirus neutralization IC50 (nM (inferred)) [9] of 0.0549. The pseudovirus neutralization IC80 (nM (inferred)) [9] was 0.11, the IC50, pseudovirus neutralization [25] was 213 nM and the IC80, pseudovirus neutralization [25] was 1300 nM. It also gave a pseudovirus neutralization IC50 (nM (inferred)) [22] of 2.55, a pseudovirus neutralization IC80 (nM (inferred)) [22] of 6.47 and a pseudovirus neutralization IC50 (nM (inferred)) [12] of 0.0695. The pseudovirus neutralization IC80 (nM (inferred)) [12] was 0.219, the pseudovirus neutralization IC50 (nM (inferred)) [23] was 1.03 and the pseudovirus neutralization IC80 (nM (inferred)) [23] was 4.44. For the same substance, the pseudovirus neutralization IC50 (nM (inferred)) [24] was 2.12, the pseudovirus neutralization IC80 (nM (inferred)) [24] was 8.5 and the IC50, pseudovirus neutralization [15] was 0.0099 nM. It also gave an IC80, pseudovirus neutralization [15] of 0.0254 nM, a pseudovirus neutralization IC50 (nM (inferred)) [17] of 0.0049 and a pseudovirus neutralization IC80 (nM (inferred)) [17] of 0.015. The pseudovirus neutralization IC50 (nM (inferred)) [18] was 0.0639, the pseudovirus neutralization IC80 (nM (inferred)) [18] was 0.183 and the IC50, pseudovirus neutralization [26] was 401 nM. It also gave an IC80, pseudovirus neutralization [26] of 1020 nM, an IC50, pseudovirus neutralization [19] of 0.0182 nM and an IC80, pseudovirus neutralization [19] of 0.0429 nM.

LY-CoV555 (antibody) was tested, and the pseudovirus neutralization IC50 [23] was over 67 nM, the pseudovirus neutralization IC80 [23] was over 67 nM and the pseudovirus neutralization IC50 [27] was 0.0145 nM. The pseudovirus neutralization IC80 [27] was 0.0361 nM, the pseudovirus neutralization IC50 [24] was over 67 nM and the pseudovirus neutralization IC80 [24] was over 67 nM.

Work on bebtelovimab (LY1404) (antibody) yielded an IC50, pseudovirus neutralization [28] of 5.9 nM, an IC80, pseudovirus neutralization [28] of 16.1 nM and an IC50, pseudovirus neutralization [29] of over 10000 nM. It also gave an IC80, pseudovirus neutralization [29] of over 10000 nM, an IC50, pseudovirus neutralization [30] of 16.9 nM and an IC80, pseudovirus neutralization [30] of 25.2 nM. For the same substance, the IC50, pseudovirus neutralization [3] was over 10 µg/mL, the IC80, pseudovirus neutralization [3] was over 10 µg/mL and the IC50, pseudovirus neutralization [31] was 22.3 nM. It also gave an IC80, pseudovirus neutralization [31] of 25.4 nM, an IC50, pseudovirus neutralization [32] of over 10 µg/mL and an IC80, pseudovirus neutralization [32] of over 10 µg/mL. For the same substance, the IC50, pseudovirus neutralization [33] was 26.4 nM, the IC80, pseudovirus neutralization [33] was 65.1 nM and the IC50, pseudovirus neutralization [6] was 0.00567 µg/mL. It also gave an IC80, pseudovirus neutralization [6] of 0.0207 µg/mL.

bebtelovimab (antibody) gave an IC50, pseudovirus neutralization [25] of 26.4 nM, an IC80, pseudovirus neutralization [25] of 65.1 nM and an IC80, pseudovirus neutralization [11] of 1 nM. For the same substance, the IC50, pseudovirus neutralization [26] was 0.32 nM, the IC80, pseudovirus neutralization [26] was 15.6 nM and the IC50, pseudovirus neutralization [34] was over 10000 nM. The IC80, pseudovirus neutralization [34] was over 10000 nM, the IC50, pseudovirus neutralization [35] was 26.4 nM and the IC80, pseudovirus neutralization [35] was 65.1 nM. It also gave an IC50, pseudovirus neutralization [36] of 11.5 nM, an IC80, pseudovirus neutralization [36] of 28.1 nM and an IC50, pseudovirus neutralization [37] of 11.4 nM. The IC80, pseudovirus neutralization [37] was 22.4 nM, the IC50, pseudovirus neutralization [38] was 8.51 nM and the IC80, pseudovirus neutralization [38] was 24.5 nM.
